Assay [1] concerns the target FcγRIIIa, F allele at position 158, on NK cells homozygous for F (human) (UniProt P08637). Description: cell-based or functional assay.
Assay [2] concerns the target FcγRIIIa, V allele at position 158, on NK cells homozygous for V (human) (UniProt P08637). In words: cell-based or functional assay.

“aggregated IgG1 expressing GM 3+,1-,2- allotypes (antibody)”: the Inhibition of ADCC (cetuximab-mediated ADCC of A431 cells by NK cells) in assay [1] was 76.5%; in assay [2], 79.4%. In addition, the results for the Inhibition of ADCC (trastuzumab-mediated ADCC of SKBR-3 cells by NK cells) in assay [1] and in assay [2] were 94.5% and 97.4%, respectively.
Regarding “aggregated IgG1 expressing GM 17+,1+,2+ allotypes (antibody)”, in assay [1], the Inhibition of ADCC (cetuximab-mediated ADCC of A431 cells by NK cells) was found to be 50.3% and the Inhibition of ADCC (trastuzumab-mediated ADCC of SKBR-3 cells by NK cells) was 27.8%. In assay [2], this substance showed an Inhibition of ADCC (cetuximab-mediated ADCC of A431 cells by NK cells) of 83.3% and an Inhibition of ADCC (trastuzumab-mediated ADCC of SKBR-3 cells by NK cells) of 73.8%.

These data come from patent US20130089496A1.
